Here are results for 35 sequences from the Immune Epitope Database (IEDB).

In general, pKd refers to −log10 of the Kd, conventionally taken in molar units.

The target of experiment [1] is HLA-A*03:01. The experiment in a line: IEDB peptide-MHC binding, purified MHC/competitive/radioactivity; filed as Kd, often an IC50 or EC50 that approximates it; ≥ and ≤ were set here for values at or beyond the usual limits of such assays. The conditions noted are these: source organism: Vaccinia virus WR.
Another experiment deals with HLA-A*29:02. The experiment is described as above.
The target of a further experiment is HLA-A*68:01. The experiment is described as above. To be noted: source organism: Vaccinia virus WR.
The next experiment deals with HLA-A*31:01. The description is as above.
For another experiment, the target named is HLA-A*11:01. The experiment is described as above. The conditions noted are these: source organism: Vaccinia virus WR.
A further experiment has as its target HLA-A*33:01. The description is as above.
In the next experiment the target is HLA-A*32:01. Described as above.
Another experiment addresses HLA-B*44:02. Described as above.
The target of a further experiment is HLA-B*44:03. The description is as above.
The target in a further experiment is HLA-B*08:01. The experiment is described as above.
Experiment [2] has as its target HLA-A*01:01. The description is as above.
Another experiment deals with HLA-A*30:02. The experiment is described as above.
The next experiment has as its target HLA-A*23:01. The experiment is described as above.
A further experiment addresses HLA-A*26:01. The description is as above.
The target of another experiment is HLA-A*24:02. Described as above.
Another experiment has as its target HLA-B*58:01. The experiment in a line: IEDB peptide-MHC binding, purified MHC/direct/fluorescence; filed as Kd, often an IC50 or EC50 that approximates it; ≥ and ≤ were set here for values at or beyond the usual limits of such assays. The conditions noted are these: source organism: SARS-CoV1.
Experiment [3] has as its target HLA-A*03:01. Described as above. To be noted: source organism: SARS-CoV1.
Experiment [4] addresses HLA-A*01:01. The experiment is described as above. The conditions noted are these: source organism: SARS-CoV1.
The next experiment concerns the target HLA-B*15:01. The experiment is described as above. The conditions noted are these: source organism: SARS-CoV1.
The next experiment has as its target HLA-A*30:01. The experiment in a line: IEDB peptide-MHC binding, purified MHC/competitive/radioactivity; filed as Kd, often an IC50 or EC50 that approximates it; ≥ and ≤ were set here for values at or beyond the usual limits of such assays.
For another experiment, the target named is HLA-B*40:01. The experiment is described as above.
[5] abbreviates: source organism: Vaccinia virus WR.
[6] abbreviates: source organism: Dengue virus 1 Brazil/97-11/1997.
Where [7] appears, read: source organism: Dengue virus 3 Singapore/8120/1995.
Setting [8] is: source organism: Vaccinia virus Copenhagen.
Where [9] appears, read: source organism: Dengue virus 4 Philippines/H241/1956.
The mark [10] stands for this setting: source organism: SARS coronavirus Tor2.
[11] abbreviates: source organism: Mammarenavirus caliense.
[12] abbreviates: source organism: Dengue virus 2 Jamaica/1409/1983.
Where [13] appears, read: source organism: Mammarenavirus guanaritoense.
Setting [14] is: source organism: Dengue virus 2 Peru/IQT2913/1996.
[15] abbreviates: source organism: Dengue virus 4 Dominica/814669/1981.
[16] abbreviates: source organism: Dengue virus 3 Martinique/1243/1999.

pKd: −log10 of the molar value. Some results are limits rather than exact numbers.

With LVKESMASLK, the pKd with HLA-A*03:01 [1] was 8.39; in the experiment with HLA-A*29:02 (setting [5]), at most 4.27; with HLA-A*68:01 it was 9.36; with HLA-A*31:01 (setting [5]), 7.19; in the experiment with HLA-A*11:01 it was 7.95; in the experiment with HLA-A*33:01 (setting [5]) it was 6.40.

With KSYAQMWQLM, the pKd with HLA-A*32:01 (setting [6]) was 7.05.

On to KEEHSSTWHY, for which the pKd with HLA-B*44:02 (setting [7]) was 7.37; in the experiment with HLA-B*44:03 (setting [7]), 6.69.

YSIFLIFSI: the pKd with HLA-A*32:01 (setting [8]) was 6.02.

For the sequence QMQRKHGGML, the pKd with HLA-B*08:01 (setting [6]) is 6.36.

Regarding FFKCFRYVF, in the experiment with HLA-B*08:01 (setting [8]), the negative-log Kd (pKd) was 7.96.

With PSSVAARGY, the pKd in the experiment with HLA-A*01:01 [2] (setting [9]) is 6.70; with HLA-A*30:02 (setting [9]), 5.49.

For the sequence CADGTRHTY, the pKd with HLA-A*29:02 (setting [10]) is 6.02; with HLA-A*23:01 (setting [10]) it was at most 4.17; with HLA-A*26:01 (setting [10]), 5.56; with HLA-A*30:02 (setting [10]), 7.40; with HLA-A*24:02 (setting [10]), at most 4.42; in the experiment with HLA-B*58:01, 5.92. In addition, the pKd is 5.01 in the experiment with HLA-A*03:01 [3], 6.36 with HLA-A*01:01 [4] and 5.90 with HLA-B*15:01.

Turning to SIHEKFWPL, the pKd with HLA-B*08:01 (setting [5]) is 8.87.

PYENLLYKI: the pKd in the experiment with HLA-A*29:02 (setting [11]) was at most 4.28; with HLA-A*23:01 (setting [11]), 8.01; with HLA-A*24:02 (setting [11]) it was 6.60.

Take MTDTTPFGQ: the pKd in the experiment with HLA-A*01:01 [2] (setting [9]) was 5.42.

Take AILLVAVSF: in the experiment with HLA-A*32:01 (setting [12]), the pKd was 4.89.

Regarding RQIFIHYSV, the pKd in the experiment with HLA-A*32:01 (setting [8]) was 8.98.

As to MMRNRTKPI, the pKd in the experiment with HLA-B*08:01 (setting [8]) was 8.83.

Consider ISKVRSNAA, for which the pKd is 8.14 with HLA-B*08:01 (setting [9]) and 6.15 in the experiment with HLA-A*30:01 (setting [9]).

For the sequence ILLNNPNLF, the pKd was 7.33 in the experiment with HLA-A*29:02 (setting [13]), 6.37 in the experiment with HLA-A*23:01 (setting [13]) and 6.10 in the experiment with HLA-A*24:02 (setting [13]).

With GFKKRVNVF, in the experiment with HLA-B*08:01 (setting [5]), the pKd was 6.96.

Regarding SMLSIFNIV, the negative logarithm of the Kd (pKd) with HLA-B*08:01 (setting [5]) is at most 4.11.

Turning to STLIFFVII, the pKd with HLA-A*32:01 (setting [5]) is 7.75.

In the case of KETACLGKSY, the pKd with HLA-B*44:03 (setting [12]) is 7.63.

Turning to ETWALRHPGF, the pKd was at most 4.39 with HLA-A*01:01 [2] (setting [6]), 6.18 with HLA-A*26:01 (setting [6]) and 5.72 with HLA-A*30:01 (setting [6]).

Turning to RRVTRKHMIL, the pKd with HLA-B*08:01 (setting [9]) is 7.19.

For KITGNLVQI, the pKd with HLA-A*32:01 (setting [9]) is 5.57.

Turning to NTSANLSLA, the pKd with HLA-A*01:01 [2] (setting [9]) is 5.87.

On to RVYVGNVAW, for which the pKd in the experiment with HLA-A*32:01 (setting [5]) was 8.97.

For TELRYSWKTW, the figures for the negative logarithm of the Kd (pKd) with HLA-A*32:01 (setting [14]), with HLA-B*44:02 (setting [14]) and with HLA-B*44:03 (setting [14]) were 5.62, 8.10 and 7.48, respectively.

In the case of KKMIRPQPM, the pKd with HLA-B*08:01 (setting [6]) was 6.73.

Consider TVYAKFASL, for which, in the experiment with HLA-B*08:01 (setting [5]), the pKd was 8.79.

As for RTYCIEASI, the pKd in the experiment with HLA-A*32:01 (setting [9]) was 7.72.

With MFGGVSWMIR, the negative-log Kd (pKd) was 8.12 in the experiment with HLA-A*31:01 (setting [15]), 5.84 in the experiment with HLA-A*32:01 (setting [15]) and 7.83 with HLA-A*33:01 (setting [15]).

Consider METLLLLGLM, for which the results for the pKd in the experiment with HLA-B*40:01 (setting [16]), in the experiment with HLA-B*44:02 (setting [16]) and in the experiment with HLA-B*44:03 (setting [16]) were 5.99, 7.20 and 5.58, respectively.

On to SEMIIPKNFA, for which the results for the pKd with HLA-B*40:01 (setting [12]), with HLA-B*44:02 (setting [12]) and with HLA-B*44:03 (setting [12]) were 5.07, 7.92 and 7.60, respectively.

With QEVPFCSHHF, the pKd is 5.31 with HLA-B*40:01 (setting [9]), 7.91 with HLA-B*44:02 (setting [9]) and 6.74 with HLA-B*44:03 (setting [9]).

For TEMGRLPTFM, the results for the pKd with HLA-B*44:02 (setting [12]) and with HLA-B*44:03 (setting [12]) were 7.94 and 6.78, respectively.

As for SPKERLPYI, the negative logarithm of the Kd (pKd) with HLA-B*08:01 (setting [5]) was 5.98.
